Measurements from patent US20260035426.

Molecular target: SB1902-C2
Sequence (chain, as listed by the source, chain 1 of 2): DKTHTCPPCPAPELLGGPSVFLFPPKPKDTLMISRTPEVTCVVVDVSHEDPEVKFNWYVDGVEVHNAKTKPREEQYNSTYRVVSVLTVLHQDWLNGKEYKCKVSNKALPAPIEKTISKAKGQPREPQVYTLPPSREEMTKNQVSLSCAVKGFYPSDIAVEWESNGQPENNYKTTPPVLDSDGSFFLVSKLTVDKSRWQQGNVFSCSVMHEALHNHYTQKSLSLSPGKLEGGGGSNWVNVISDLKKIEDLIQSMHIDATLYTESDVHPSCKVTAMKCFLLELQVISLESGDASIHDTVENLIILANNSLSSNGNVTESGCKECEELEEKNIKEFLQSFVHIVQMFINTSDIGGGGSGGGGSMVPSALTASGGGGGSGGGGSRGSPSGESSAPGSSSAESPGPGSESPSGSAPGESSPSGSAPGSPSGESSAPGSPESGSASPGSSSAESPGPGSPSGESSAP
Sequence (chain, as listed by the source, chain 2 of 2): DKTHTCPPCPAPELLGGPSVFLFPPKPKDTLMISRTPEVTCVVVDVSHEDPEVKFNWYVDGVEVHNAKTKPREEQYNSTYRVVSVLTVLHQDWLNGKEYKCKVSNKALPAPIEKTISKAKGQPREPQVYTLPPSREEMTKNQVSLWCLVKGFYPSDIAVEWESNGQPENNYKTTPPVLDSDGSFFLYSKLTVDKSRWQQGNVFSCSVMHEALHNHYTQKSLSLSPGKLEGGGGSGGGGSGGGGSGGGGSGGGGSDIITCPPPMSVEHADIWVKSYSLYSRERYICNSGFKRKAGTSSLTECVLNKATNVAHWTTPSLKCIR

B1: recombinant human MMP2 (protein)
chain: YNFFPRKPKWDKNQITYRIIGYTPDLDPETVDDAFARAFQVWSDVTPLRFSRIHDGEADIMINFGRWEHGDGYPFDGKDGLLAHAFAPGTGVGGDSHFDDDELWTLGEGQVVRVKYGNADGEYCKFPFLFNGKEYNSCTDTGRSDGFLWCSTTYNFEKDGKYGFCPHEALFTMGGNAEGQPCKFPFRFQGTSYDSCTTEGRTDGYRWCGTTEDYDRDKKYGFCPETAMSTVGGNSEGAPCVFPFTFLGNKYESCTSAGRSDGKMWCATTANYDDDRKWGFCPDQGYSLFLVAAHEFGHAMGLEHSQDPGALMAPIYTYTKNFRLSQDDIKGIQELYGASPDIDLGTGPTPTLGPVTPEICKQDIVFDGIAQIRGEIFFFKDRFIWRTVTPRDKPMGPLLVATFWPELPEKIDAVYEAPQEEKAVFFAGNEYWIYSASTLERGYPKPLTSLGLPPDVQRVDAAFNWSKNKKTYIFAGDKFWRYNEVKKKMDPGFPKLIADAWNAIPDNLDAVVDLQGGGHSYFFKGAYYLKLENQSLKSVKFGSIKSDWLGC
- digestion efficiency by SDS-PAGE: about 90% of the prodrug SB1902-C2 was digested
